± gives the uncertainty stated by the source.

The nature of this series: self-splicing fitness, log relative to wild type (ln ratio); higher = more splicing; Tetrahymena group I intron in knt gene, E. coli kanamycin selection, DiMSum; sequences stand for … in CUCUCU…GGAGGGAAAAGUUAUCAGGCAUGCACCUGGUAGCUAGUCUUUAAACCAAUAGAUUGCAUCGGUUUAAAAGGCAAGACCGUCAAAUUGCGGGAAAGGGGUCAACAGCCGUUCAGUACCAAGUCUCAGGGGAAACUUUGAGAUGGCCUUGCAAAGGGUAUGGUAAUAAGCUGACGGACAUGGUCCUAACCACGCAGCCAAGUCCUAAGUCAACAGAUCUUCUGUUGAUAUGGAUGCAGUUCACAGACUAAAUGUCGGUCGGGGAAGAUGUAUUCUUCUCAUAAGAUAUAGUCGGACCUCUCCUUAAUGGGAGCUAGCGGAUGAAGUGAUGCAACACUGGAGCCGCUGGGAACUAAUUUGUAUGCGAAAGUAUAUUGAUUAGUUUUGGAGUACUCGUGGUCG
The method in brief: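 The eight P1ex-region nucleotides of an intron in the knt kanamycin-resistance gene on pET-22b(+) were all randomised and the library put into E. coli BL21(DE3). Six replicate transformations were grown overnight at 37°C or 30°C on LB agar with or without 25 μg/mL kanamycin, together with 100 μg/mL carbenicillin, 50 μM IPTG and 0.2% rhamnose. Colonies were pooled and amplicon-sequenced on an Illumina HiSeq 2500. Fitness from DiMSum is the error-weighted combination of wild-type-normalised replicate fold changes, kanamycin over none.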

With CAACAGCAAUAUUACGGGCC, the “self-splicing fitness (ln)” value (30 °C) was -5.11 ± 0.46 and the “self-splicing fitness (ln)” value (37 °C) was -1.48 ± 0.14. Turning to CGACAGCAAUAUUACGCCCA, the “self-splicing fitness (ln)” value is -1.56 ± 0.11 (30 °C) and -0.725 ± 0.11 (37 °C).

Turning to GCGCAGCAAUAUUACGUUCC, the “self-splicing fitness (ln)” value (30 °C) is -0.792 ± 0.096 and the “self-splicing fitness (ln)” value (37 °C) is -0.406 ± 0.13. The corresponding values for CAUGAGCAAUAUUACGUGUG are -3.67 ± 0.17 and -3.09 ± 0.16. The corresponding values for ACGUAGCAAUAUUACGCUAU are -4.59 ± 0.34 and -3.11 ± 0.35.

Take AUUCAGCAAUAUUACGCAAU: the “self-splicing fitness (ln)” value reads like this: (30 °C) -2.4 ± 0.23; (37 °C) -0.772 ± 0.22. As for GCACAGCAAUAUUACGCCAA, the “self-splicing fitness (ln)” value was -3.77 ± 0.25 (30 °C) and -2.56 ± 0.2 (37 °C). The corresponding values for AAGCAGCAAUAUUACGUGGA are -3.63 ± 0.21 and -1.44 ± 0.11. As to GGGAAGCAAUAUUACGUUGA, the “self-splicing fitness (ln)” value by setting is: (30 °C) -3.37 ± 0.23; (37 °C) -1.94 ± 0.18. The corresponding values for GUCCAGCAAUAUUACGUCCC are -0.702 ± 0.12 and 0.424 ± 0.12. Turning to UAUUAGCAAUAUUACGAAGU, the “self-splicing fitness (ln)” value is -2.67 ± 0.42 (30 °C) and -2.12 ± 0.4 (37 °C). AGUAAGCAAUAUUACGGAGC: the “self-splicing fitness (ln)” value (30 °C) is -2.93 ± 0.37. For the sequence CAUCAGCAAUAUUACGUAGA, the “self-splicing fitness (ln)” value runs as follows: (30 °C) -1.06 ± 0.065; (37 °C) -0.309 ± 0.088. For GUGGAGCAAUAUUACGCAUC, the “self-splicing fitness (ln)” value (37 °C) was -2.03 ± 0.41. GAAAAGCAAUAUUACGGCAA: the “self-splicing fitness (ln)” value is -0.142 ± 0.1 (30 °C) and -0.719 ± 0.11 (37 °C).

Regarding CGAAAGCAAUAUUACGAAAA, the “self-splicing fitness (ln)” value by setting is: (30 °C) -2.38 ± 0.29; (37 °C) -1.32 ± 0.23. The corresponding values for UGCCAGCAAUAUUACGCUCG are -0.839 ± 0.086 and -0.622 ± 0.14. The corresponding values for GCCGAGCAAUAUUACGCAGU are -2.75 ± 0.33 and -2.25 ± 0.23. The corresponding values for CGGGAGCAAUAUUACGGGUA are -2.54 ± 0.21 and -1.75 ± 0.2.

On to CACAAGCAAUAUUACGAUAC, for which the “self-splicing fitness (ln)” value (30 °C) is -3.58 ± 0.21 and the “self-splicing fitness (ln)” value (37 °C) was -2.5 ± 0.29. Taken in the same sequence, the figures for UUAUAGCAAUAUUACGGGAG were -2.25 ± 0.25 and -1.94 ± 0.31. Taken in the same sequence, the figures for UGUCAGCAAUAUUACGAGGA were -2.46 ± 0.22 and -0.886 ± 0.15.

As to UUUAAGCAAUAUUACGUAAC, the “self-splicing fitness (ln)” value runs as follows: (30 °C) -3.67 ± 0.29; (37 °C) -2.17 ± 0.19. The corresponding values for GUUGAGCAAUAUUACGAAUU are -3.8 ± 0.34 and -1.24 ± 0.34. Taken in the same sequence, the figures for CAAAAGCAAUAUUACGGCGC were -2.33 ± 0.13 and -1.5 ± 0.18. As for GUUGAGCAAUAUUACGGGUU, the “self-splicing fitness (ln)” value was -3.57 ± 0.27 (30 °C) and -2 ± 0.21 (37 °C). Taken in the same sequence, the figures for CUGCAGCAAUAUUACGCUUA were -3.04 ± 0.29 and -3.98 ± 0.46.

As for CCUGAGCAAUAUUACGGUUC, the “self-splicing fitness (ln)” value reads like this: (30 °C) -3.21 ± 0.23; (37 °C) -3.06 ± 0.4.

For the sequence ACGAAGCAAUAUUACGGGCC, the “self-splicing fitness (ln)” value (30 °C) is -2.74 ± 0.15 and the “self-splicing fitness (ln)” value (37 °C) was -1.7 ± 0.14. As for CAUGAGCAAUAUUACGGUUA, the “self-splicing fitness (ln)” value by setting is: (30 °C) -2.75 ± 0.23; (37 °C) -3.26 ± 0.32.
